# Source: patent US10064928B2, “Peptides and combination of peptides for use in immunotherapy against CLL and other cancers” (IMMATICS BIOTECHNOLOGIES GMBH, priority 2015, dated 2018)
# Molecular target: HLA-A*02:01 (Homo sapiens, UniProt P04439, D140Y/D185E/D98H/E176V/E277Q/G131W/G231S/I119V/I121R/I166T/I218V/L300P/L318F/N151K/N90K/P208A/P217A/Q86G/Q94H/R138H/R169H/T345S)
# Assay: MHC binding assay (UV-ligand exchange, beta2m ELISA)
# Conditions: binding of HLA-class I restricted peptides to HLA-A*02:01, β2m ELISA
# From the text: Candidate peptides for T cell based therapies according to the present invention were further tested for their MHC binding capacity (affinity). The individual peptide-MHC complexes were produced by UV-ligand exchange, where a UV-sensitive peptide is cleaved upon UV-irradiation, and exchanged with the peptide of interest as analyzed. Only peptide candidates that can effectively bind and stabilize the peptide-receptive MHC molecules prevent dissociation of the MHC complexes. To determine the yield of the exchange reaction, an ELISA was performed based on the detection of the light chain (β2m) of stabilized MHC complexes. The assay was performed as generally described in Rodenko et al. (Rodenko et al., 2006).
# 96 well MAXISorp plates (NUNC) were coated over night with 2 ug/ml streptavidin in PBS at room temperature, washed 4× and blocked for 1 h at 37° C. in 2% BSA containing blocking buffer. Refolded HLA-A*02:01/MLA-001 monomers served as standards, covering the range of 15-500 ng/ml. Peptide-MHC monomers of the UV-exchange reaction were diluted 100 fold in blocking buffer. Samples were incubated for 1 h at 37° C., washed four times, incubated with 2 ug/ml HRP conjugated anti-β2m for 1 h at 37° C., washed again and detected with TMB solution that is stopped with […]. Absorption was measured at 450 nm. Candidate peptides that show a high exchange yield (preferably higher than 50%, most preferred higher than 75%) are generally preferred for a generation and production of antibodies or fragments thereof, and/or T cell receptors or fragments thereof, as they show sufficient avidity to the MHC molecules and prevent dissociation of the MHC complexes.
row,Substance,"Peptide Exchange (MHC class I binding score, peptide exchange yield)"
1,3 (VIAELPPKV; listed as Homo sapiens) [compound 3],“++” (≥20% = ++)
2,4 (VIAELPPKVSV; listed as Homo sapiens) [compound 4],“+++” (≥50 = +++)
3,6 (ALDTLEDDMTI; listed as Homo sapiens) [compound 6],“+++” (≥50 = +++)
4,7 (ALLERTGYTL; listed as Homo sapiens) [compound 7],“+++” (≥50 = +++)
5,8 (ALAASALPALV; listed as Homo sapiens) [compound 8],“+++” (≥50 = +++)
6,9 (ALCDTLITV; listed as Homo sapiens) [compound 9],“+++” (≥50 = +++)
7,10 (FVYGESVEL; listed as Homo sapiens) [compound 10],“+++” (≥50 = +++)
8,11 (ALFTFSPLTV; listed as Homo sapiens) [compound 11],“+++” (≥50 = +++)
9,12 (ALGEDEITL; listed as Homo sapiens) [compound 12],“+++” (≥50 = +++)
10,13 (VVDGMPPGV; listed as Homo sapiens) [compound 13],“+++” (≥50 = +++)
11,14 (ALLRLLPGL; listed as Homo sapiens) [compound 14],“+++” (≥50 = +++)
12,15 (ALPEVSVEA; listed as Homo sapiens) [compound 15],“+++” (≥50 = +++)
13,16 (ALPGGAAVAAV; listed as Homo sapiens) [compound 16],“++++” (≥75% = ++++)
14,18 (LLGEFSIKM; listed as Homo sapiens) [compound 18],“+++” (≥50 = +++)
15,19 (QVMEKLAAV; listed as Homo sapiens) [compound 19],“+++” (≥50 = +++)
16,20 (ALVDPGPDFVV; listed as Homo sapiens) [compound 20],“+++” (≥50 = +++)
17,21 (ALWAGLLTL; listed as Homo sapiens) [compound 21],“+++” (≥50 = +++)
18,22 (ALWDPVIEL; listed as Homo sapiens) [compound 22],“+++” (≥50 = +++)
19,23 (ALYLTEVFL; listed as Homo sapiens) [compound 23],“++++” (≥75% = ++++)
20,24 (AMAGDVVYA; listed as Homo sapiens) [compound 24],“+++” (≥50 = +++)
21,25 (ATYSGLESQSV; listed as Homo sapiens) [compound 25],“++” (≥20% = ++)

row,Substance,"Peptide Exchange (MHC class I binding score, peptide exchange yield)"
1,27 (AVLGLVWLL; listed as Homo sapiens) [compound 27],“+++” (≥50 = +++)
2,28 (AVLHLLLSV; listed as Homo sapiens) [compound 28],“++” (≥20% = ++)
3,29 (AVLQAVTAV; listed as Homo sapiens) [compound 29],“+++” (≥50 = +++)
4,30 (ELLEGSEIYL; listed as Homo sapiens) [compound 30],“+++” (≥50 = +++)
5,31 (ELMHGVAGV; listed as Homo sapiens) [compound 31],“+++” (≥50 = +++)
6,34 (YLPYIFPNI; listed as Homo sapiens) [compound 34],“+++” (≥50 = +++)
7,35 (FILPSSLYL; listed as Homo sapiens) [compound 35],“+++” (≥50 = +++)
8,36 (FILTHVDQL; listed as Homo sapiens) [compound 36],“++++” (≥75% = ++++)
9,37 (FIMEGGAMVL; listed as Homo sapiens) [compound 37],“++++” (≥75% = ++++)
10,38 (FIMEGGAMV; listed as Homo sapiens) [compound 38],“+++” (≥50 = +++)
11,39 (FLDALLTDV; listed as Homo sapiens) [compound 39],“+++” (≥50 = +++)
12,40 (FLDEDDMSL; listed as Homo sapiens) [compound 40],“++” (≥20% = ++)
13,41 (FLDPSLDPLL; listed as Homo sapiens) [compound 41],“+++” (≥50 = +++)
14,42 (FLEEGGVVTV; listed as Homo sapiens) [compound 42],“+++” (≥50 = +++)
15,43 (FLLGPEALSFA; listed as Homo sapiens) [compound 43],“++++” (≥75% = ++++)
16,44 (FLLSINDFL; listed as Homo sapiens) [compound 44],“+++” (≥50 = +++)
17,45 (FLPELPADLEA; listed as Homo sapiens) [compound 45],“+++” (≥50 = +++)
18,46 (YIIDSAQAV; listed as Homo sapiens) [compound 46],“+++” (≥50 = +++)
19,47 (FLSDQPEPYL; listed as Homo sapiens) [compound 47],“++” (≥20% = ++)
20,48 (FLSPQQPPLL; listed as Homo sapiens) [compound 48],“+++” (≥50 = +++)
21,50 (FLFEPVVKAFL; listed as Homo sapiens) [compound 50],“+++” (≥50 = +++)

row,Substance,"Peptide Exchange (MHC class I binding score, peptide exchange yield)"
1,51 (FLVEAPHDWDL; listed as Homo sapiens) [compound 51],“++++” (≥75% = ++++)
2,52 (FLVETGFLHV; listed as Homo sapiens) [compound 52],“++++” (≥75% = ++++)
3,53 (FLWQHVELVL; listed as Homo sapiens) [compound 53],“+++” (≥50 = +++)
4,55 (FMEPTLLML; listed as Homo sapiens) [compound 55],“+++” (≥50 = +++)
5,58 (YIQQGIFSV; listed as Homo sapiens) [compound 58],“+++” (≥50 = +++)
6,59 (FVFGDENGTVSL; listed as Homo sapiens) [compound 59],“+++” (≥50 = +++)
7,60 (FVLDHEDGLNL; listed as Homo sapiens) [compound 60],“+++” (≥50 = +++)
8,61 (FVYFIVREV; listed as Homo sapiens) [compound 61],“+++” (≥50 = +++)
9,62 (GIIDGSPRL; listed as Homo sapiens) [compound 62],“+++” (≥50 = +++)
10,63 (SLAHVAGCEL; listed as Homo sapiens) [compound 63],“+++” (≥50 = +++)
11,64 (KLLESVASA; listed as Homo sapiens) [compound 64],“+++” (≥50 = +++)
12,65 (GLDDMKANL; listed as Homo sapiens) [compound 65],“++” (≥20% = ++)
13,66 (SLAGGLDDMKA; listed as Homo sapiens) [compound 66],“+++” (≥50 = +++)
14,67 (GLDDVTVEV; listed as Homo sapiens) [compound 67],“++” (≥20% = ++)
15,68 (GLDQQFAGLDL; listed as Homo sapiens) [compound 68],“+” (≥10% = +)
16,70 (FVPDTPVGV; listed as Homo sapiens) [compound 70],“+++” (≥50 = +++)
17,71 (GLKHDIARV; listed as Homo sapiens) [compound 71],“+++” (≥50 = +++)
18,72 (GLLDAGKMYV; listed as Homo sapiens) [compound 72],“+++” (≥50 = +++)
19,73 (GLLEVISALQL; listed as Homo sapiens) [compound 73],“+++” (≥50 = +++)
20,74 (GLLRASFLL; listed as Homo sapiens) [compound 74],“++” (≥20% = ++)
